Experimental data taken from PMC12120770, “Unveiling Structural Heterogeneity and Evolutionary Adaptations of Heteromultimeric Bacterioferritin Nanocages” (Advanced Science, 2025).

Legend:
[1] = target: the molecule itself; assay: cryo-EM structure; single-particle cryo-EM of purified SoBfr12 (1.7 mg mL^-1), subunits co-expressed in E. coli; refined with C1 symmetry, 2.62 Å
[2] = target: the molecule itself; assay: native gel or EMSA; purified PaBfrB on 6% native PAGE, Tris-glycine pH 8.3, 4 °C

B1: SoBfr1, heme-free subunit of the Shewanella oneidensis hetero-bacterioferritin SoBfr12 (natural protein)
chain: MKGDKDVIDALNRLLTGELSAMDQYFVHAHMYEDWGLNELYERIAHESDDEKGHAAKLVQRILFLEGVPNVAAREALNIGSNVEEMLRNDLAYEYKVADDLRKVIALCEQKKDYQTREILEVLLDDTESDHMYWLEKQLGLIDRIGLANYLQTKM
notes: SoBfr1, heme-free bacterioferritin subunit of Shewanella oneidensis, amplified from genomic DNA together with SoBfr2; Expressed from one DNA fragment encoding SoBfr2 and SoBfr1 with a Strep-tag II; not shown: Strep-tag II, C-terminal, kept
In the case of B1, the “stoichiometry N” value [1] is reported as 2.

B2: PaBfrB, Pseudomonas aeruginosa homo-bacterioferritin subunit (natural protein)
chain: not shown
notes: also called homo-Bfr
B2: binds [2].

B3: SoBfr2, heme-binding subunit of the Shewanella oneidensis hetero-bacterioferritin SoBfr12 (natural protein)
chain: MKGHPKVVGQLNRVLTCELTAINQYFLHARMFKHWGLEKLNHVEYKKSIEDMKHADKLIERVLFLEGLPNLQQLEKLRIGEHAQEMLDCDLAMVQEQLTLLRDAITLCEAEQDYVSRDLLEDILEDEEEHLDWLESQRELIGLTGIQNYLQSQISES
In the case of B3, the “stoichiometry N” value [1] is reported as 2.
